{
  "source": "paper doi:10.1101/2025.07.01.662521",
  "about": "“Ligand-induced Conformational Plasticity of the CTLH E3 Ligase Receptor GID4” (bioRxiv, 2025)",
  "binders": {"B1": {"name": "degron peptide PGLWKS (peptide)", "peptide": "PGLWKS", "notes": "Pro/N-degron peptide; also called endogenous degron peptide; PGLWKS degron peptide"}},
  "biological_target": "T1, Human Glucose-induced degradation protein 4 homolog (GID4), residues 116-300, N-terminally Avi-tagged, … (human, UniProt Q8IVV7 116-300, biotin (BirA, on the AVI tag))",
  "T1 construct": "Glucose-induced degradation protein 4 homolog (GID4), human, UniProt Q8IVV7, residues 116-300; Construct: N-terminal Strep-SUMO-3C-6xHis-AVI-tag; cleaved with HRV-3C protease, which by the printed order of the tags should leave 6xHis-AVI on the protein; also called hGID4; biotinylated GID4; source: E. coli BL21(DE3), purified (Streptactin XT, HRV-3C cleavage, BirA biotinylation, SEC); not shown: …",
  "T1 sequence (looked up)": "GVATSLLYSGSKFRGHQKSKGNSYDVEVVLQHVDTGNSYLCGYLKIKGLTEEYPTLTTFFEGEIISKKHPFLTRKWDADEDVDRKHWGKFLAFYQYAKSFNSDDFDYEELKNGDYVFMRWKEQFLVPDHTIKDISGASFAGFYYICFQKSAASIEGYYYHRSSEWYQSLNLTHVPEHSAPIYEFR",
  "assay": "SPR; biotinylated GID4 (116-300) captured on an SA chip (about 2500 RU), Biacore 8K; peptide flowed over; PBS pH 7.4, 0.05% P-20, 1 mM DTT, 1% DMSO",
  "conditions": "both partners purified",
  "data": [
    {"binder": "B1", "values": [
      {"measurement": "Kd", "value": 2130, "unit": "nM"}
    ]}
  ]
}
